The values that follow come from patent US20240327505A1 (published 2024).

Assay [1] deals with SARS-CoV-2 spike receptor-binding domain (RBD) (SARS-CoV-2, UniProt P0DTC2 319-541).
In assay [2] the target is SARS-CoV-2 spike S1 protein (SARS-CoV-2, UniProt P0DTC2 16-685).
Assay [3] shares this target. The source holds these as a separate data set.
In assay [4] the target is SARS-CoV-2 Spike (S) trimer (SARS-CoV-2, UniProt P0DTC2 16-1213). Put plainly: ELISA on coated S trimer, 1:50.
Assay [5] has as its target SARS-CoV-2 spike S2 protein (SARS-CoV-2, UniProt P0DTC2 686-1213).

B1: AB-009666 (antibody, V domains shown)
VH: EVQLVESGGGLVQPGGSLRLSCAASGFTFSSYDMHWVRQATGKGLEWVSTIGTAGDTYYPGSVKGRFTISRENAKNSLYLQMNSLRAEDTAVYYCARVNYDSSGYPTYWYFDLWGRGTLVTVSS
VL: DIQMTQSPSSLSASVGDRVTITCRASQSISRYLNWYQQKPGKAPKLLIYAASSLQSGVPSRFSGSGSGTDFTLTISSLQPEDFATYNCQQSYSSPPWTFGQGTKVEIK
In assay [1], B1 registered a Kd of 3.04 nM, a koff of 0.00062 s⁻¹ and a kon of 204000 M⁻¹ s⁻¹. In assay [2], this molecule displayed a Kd of 11.9 nM, a koff of 0.000546 s⁻¹ and a kon of 45900 M⁻¹ s⁻¹.

B2: AB-009661 (antibody, V domains shown)
VH: QVQLVESGGGVVQPGRSLRLSCAASGFTFSSYGMHWVRQAPGKGLEWVAVISYDGSNKYYADSVKGRFTISRDNSKNTLYLQMNSLRAEDTAVYYCAKDYGDYGGMDVWGQGTTVTVSS
VL: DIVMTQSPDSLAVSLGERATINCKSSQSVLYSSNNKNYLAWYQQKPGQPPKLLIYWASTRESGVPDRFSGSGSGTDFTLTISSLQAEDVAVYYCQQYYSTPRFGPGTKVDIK
In assay [3], B2 showed a dissociation constant Kd of 84 nM, an off-rate constant (koff) of 0.00428 s⁻¹ and a kon of 51000 M⁻¹ s⁻¹.

B3: AB-009616 (antibody, V domains shown)
VH: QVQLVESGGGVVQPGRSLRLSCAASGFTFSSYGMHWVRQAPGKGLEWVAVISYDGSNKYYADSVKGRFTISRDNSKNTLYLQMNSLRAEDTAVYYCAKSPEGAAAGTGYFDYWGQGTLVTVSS
VL: SYVLTQPPSVSVAPGKTARITCGGNNIGSKSVHWYQQKPGQAPVLVVYDDSDRPSGIPERFSGSNSGNTATLTISRVEAGDEADYYCQVWDSSSDPWVFGGGTKLTVL
In assay [1], B3 yielded an equilibrium dissociation constant (Kd) of 3 nM, an off-rate constant (koff) of 0.000287 s⁻¹ and a kon of 95800 M⁻¹ s⁻¹. In addition, in assay [2], binding was characterised by a dissociation constant (Kd) of 13.3 nM, the koff stood at 0.000755 s⁻¹ and the kon was 56900 M⁻¹ s⁻¹.

B4: AB-009110 (antibody, V domains shown)
VH: QVQLVQSGAEVKEPGASVKVSCNASGYIFTSYGISWVRQAPGQGLEWVGWISGNNGNTNYAQKFQGRVTLTTDTSTSTAYLELRSLTSADTGVYFCARARLPSAYWGPGTLLTVSS
VL: EILLTQSPATLSVSPGERGSLSCRASQSVGTNLAWYQQKPGQAPRLLIYGASARATGIPARFSGSGSGTEFTLTISSLQSEDFGVYYCQQYNDWPPWTFGQGTKVEIK
Take B4: the “OD 450 nm” value in assay [4] was 0.081 OD.

B5: AB-009293 (antibody, V domains shown)
VH: QAQLVESGGGVVQPGRSLRLSCAASGFNFNNYGMHWVRLAAGKGLEWVAFISYEGSITHYADSVKGRFTVSRDFSKNTLYLQMNRLTTGDTAVYYCAKRREVLHLWRDEMDVWGQGTTVTVSS
VL: DIQMTQSPPSLSASVGDRVTFTCRASQDITNSLAWFQQRPGKAPKSLIYAASTLHSGVPSKFSGSGSGTDFTLTITSLQPEDVATYYCQQYKTYPFTFGQGTRLEIK
On to B5, for which, in assay [5], binding was characterised by a dissociation constant (Kd) of 0.0628 nM, the off-rate constant (koff) was determined as 3.25e-07 s⁻¹ and the kon turned out to be 5170 M⁻¹ s⁻¹.

B6: AB-009263 (antibody, V domains shown)
VH: EVQLVQSGAEVKKPGESLRISCQSSGYSFSTYWIAWVRQTPEKGLEWMGIIYPGDSDTRYSPTFQGQVTISADTSISTAYLQWSSLKASDTAVYYCARFRFNWLLSYYYYYMDVWGKGTTVSVSS
VL: QSALTQPDSVSGSPGQSIAISCTGTSRDVGGYNYVSWYQQHPGKAPKLMIYEVSNRPSGVSDRFSGSKSDNTASLTISGLQGDDEANYYCSSYTDSGTLVFGGGTKVTVL
In assay [5], B6 had a Kd of 0.0383 nM, a dissociation rate constant (koff) of 3.82e-07 s⁻¹ and a kon of 9980 M⁻¹ s⁻¹.

B7: AB-009361 (antibody, V domains shown)
VH: EVQLVESGGGLAQPGGTLRLSCTGYGFIFNNYGLTWVRQAPGKGLEWLSVLSGSSYIKYEADSVRGRFTISRDNSKNTLYLEMNSLTAEDTAVYYCARKGVGSQDYGLDVWGQGTTVIVSS
VL: QSVLAQPPSASETPGQSVTISCSGSTSNIGSNFVYWYQQLPGTAPKLLIYRNTQRPSGVPDRFSGSKSATSASLAISGLRPEDEADYYCAAWDDSLSGGVFGTGTKVTVL
As to B7, in assay [4], the “OD 450 nm” value turned out to be 1.39 OD.

B8: AB-009281 (antibody, V domains shown)
VH: EVQLVETGGGLIQPGGSLRLSCAASGFTVSSNYMSWVRQAPGKGLEWVSVIYSGGSTYYADSVKGRFTISRDNSKNTLYLQMNSLRAEDTAVYYCARDLYYYGMDVWGQGTTVTVSS
VL: DIQLTQSPSFLSASVGDRVTITCRASQGISSYLAWYQQKPGKAPKLLIYAASTLQSGVPSRFSGSGSGTEFTLTISSLQPEDFATYYCQQLNSYPTFGQGTKVEIK
As for B8, in assay [3], the Kd stood at 16.7 nM, the koff was 0.00136 s⁻¹ and the on-rate constant (kon) worked out at 81200 M⁻¹ s⁻¹.

B9: AB-009269 (antibody, V domains shown)
VH: QVQLVQSGAEVKKPGASVKVSCKASGYTFTSYGISWVRQAPGQGLEWMGWISAYNGNTNYAQKLQGRVTMTTDTSTSTAYMELRSLRSDDTAVYYCAREGDCSGGSCYSGYYYYYGMDVWGQGTTVTVSS
VL: EIVLTQSPATLSLSPGERATLSCRASQSVSSYLAWYQQKPGQAPRLLIYDASNRATGIPARFSGSGSGTDFTLTISSLEPEDFAVYYCQQRSNWGTFGPGTKVDIK
Turning to B9, in assay [1], binding was characterised by a dissociation constant (Kd) of 12 nM, the off-rate (koff) amounted to 0.000675 s⁻¹ and the kon worked out at 56300 M⁻¹ s⁻¹. Further, in assay [2], the Kd was 16.7 nM, the koff stood at 0.000643 s⁻¹ and the on-rate (kon) stood at 38500 M⁻¹ s⁻¹.

B10: AB-009769 (antibody, V domains shown)
VH: EVQLVESGGGLVQPGGSLRLSCAASGFTFSSYWMSWVRQAPGKGLEWVANIKQDGSEKYYVDSVKGRFTISRDNAKNSLYLQMNSLRAEDTAVYYCARSPEVLWFGDPVLDNWFDPWGQGTLVTVSS
VL: SYELTQPPSVSVSPGQTARITCSGDALPKQYAYWYQQKPGQAPVLVIYKDSERPSGIPERFSGSSSGTTVTLTISGVQAEDEADYYCQSADSSGTYPVVFGGGTKLTVL
In assay [3], B10 gave a Kd of 106 nM, an off-rate (koff) of 0.00194 s⁻¹ and an on-rate constant (kon) of 18400 M⁻¹ s⁻¹.

B11: AB-009620 (antibody, V domains shown)
VH: QITLKESGPTLVKPTQTLTLTCTFSGFSLSTSGVGVGWIRQPPGKALEWLALIYWDDDKRYSPSLKSRLTITKDTSKNQVVLTMTNMDPVDTATYYCAHHEVATVFDYWGQGTLVTVSS
VL: QSALTQPASVSGSPGQSITISCTGTSSDVGAYNYVSWYQQHPGKAPKLMIYEVSNRPSGVSNRFSGSKSGNTASLTISGLQAEDEADYYCSSYTSSSTVFGGGTKLTVL
Turning to B11, in assay [3], binding was characterised by a dissociation constant (Kd) of 27.5 nM, the koff stood at 0.00078 s⁻¹ and the kon is 28400 M⁻¹ s⁻¹.

B12: AB-009346 (antibody, V domains shown)
VH: EVQLVESGGGVVRPGGSLRLSCAASGFTFDDYGMSWVRQAPGKGLEWVSGINWNGGSTGYADSVKGRFTISRDNAKNSLYLQMNSLRAEDTALYYCARWPLLGISGYYHYYMDVWGKGTTVTVSS
VL: QSALTQPRSVSGSPGQSVTISCTGTSSDVGGYNYVSWYQQHPGKAPKLMIYDVSKRPSGVPDRFSGSKSGNTASLTISGLQAEDEADYYCCSYAGSYTLLFGGGTKLIVL
Take B12: in assay [3], the affinity, expressed as Kd, was 12.5 nM; the koff amounted to 0.000523 s⁻¹; the kon was 41700 M⁻¹ s⁻¹.

B13: AB-009270 (antibody, V domains shown)
VH: QMQLVQSGPEVKKPGTSVKVSCKASGFTFTSSAMQWVRQARGQRLEWIGWIVVGSGNTNYAQKFQERVTITRDMSTSTAYMELSSLRSEDTAVYYCAVNYCSSTSCYDAFDIWGQGTMVTVSS
VL: not shown
As for B13, in assay [3], binding was characterised by a dissociation constant (Kd) of 3.02 nM.

B14: AB-009747 (antibody, V domains shown)
VH: QVQLVESGGGVVQPGGSLRLSCAASGFTFSNYGMHWVRQAPGKGLEWVAFIRYDGSNEYYADSVKGRFTISRDNSKNTLYLHMNSLRPEDTAVYYCAKQGLLSNYYYGMDVWGQGTTVTVSS
VL: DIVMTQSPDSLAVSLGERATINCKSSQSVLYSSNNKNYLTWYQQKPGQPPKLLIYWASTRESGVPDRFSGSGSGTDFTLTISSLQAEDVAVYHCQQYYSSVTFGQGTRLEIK
Molecule B14 showed a koff in assay [1] of 0.00105 s⁻¹. In assay [2], this molecule showed a dissociation constant (Kd) of 45.2 nM, a koff of 0.00379 s⁻¹ and a kon of 83700 M⁻¹ s⁻¹.

B15: AB-009306 (antibody, V domains shown)
VH: QVQLVQSGAEVKKPGASVKVPCKASGYTFTSYQMHWVRRAPGQGLEWMGLIDPDTGGTRYTQNFQGRVTMTRDTSTTTVYMELNSLTSGDTAVYYCARGGRVGATYPYNMDVWGKGTTVTVSS
VL: SYELTQPPSVSVSPGQTARITCSGDALPKKYAYWYQQKSGQAPVLVIYEDSKRPSGIPERFSGSSSGTMATLTISGAQVEDDSDYYCFSTDSSGNHGVFGGGTRLTVL
In assay [5], B15 came in with a Kd of 0.22 nM, a koff of 2.44e-07 s⁻¹ and a kon of 1110 M⁻¹ s⁻¹.

B16: AB-009364 (antibody, V domains shown)
VH: QVQLVESGGGVVQPGRSLRLSCAASGFTFSSYAMHWVRQAPGKGLEWVAVISYDGSNKYYADSVKGRFTISRDNSKNTLYLQMNSLRAEDTAVYYCARDPDYYDSSSDAFDIWGQGTMVTVSS
VL: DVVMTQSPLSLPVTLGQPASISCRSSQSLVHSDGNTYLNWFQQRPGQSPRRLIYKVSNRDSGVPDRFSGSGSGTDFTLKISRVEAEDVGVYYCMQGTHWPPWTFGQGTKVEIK
Turning to B16, the “OD 450 nm” value in assay [4] amounted to 1.06 OD.

B17: AB-009615 (antibody, V domains shown)
VH: QVQLVESGGGVVQPGRSLRLSCAASGFTFSSYGMHWVRQAPGKGLEWVAVIWYDGSNKYYADSVKGRFTISRDNSKNTLYLQMNSLRAEDTAVYYCAKVGSPYCSGGSCYSGYFDYWGQGTLVTVSS
VL: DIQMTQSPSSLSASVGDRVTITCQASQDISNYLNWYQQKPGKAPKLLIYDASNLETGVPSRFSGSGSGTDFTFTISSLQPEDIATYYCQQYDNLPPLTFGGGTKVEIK
In assay [3], B17 returned an equilibrium dissociation constant (Kd) of 36.6 nM, a koff of 0.00276 s⁻¹ and an association rate constant (kon) of 75400 M⁻¹ s⁻¹.

B18: AB-009760 (antibody, V domains shown)
VH: EVQLVQSGAEVKKPGESLKISCKGSGYSFTSYWIGWVRQMPGKGLEWMGIIYPGDSDTRYSPSFQGQVTISADKSISTAYLQWSSLKASDTAMYYCARSRSSDYFDYWGQGTLVTVSS
VL: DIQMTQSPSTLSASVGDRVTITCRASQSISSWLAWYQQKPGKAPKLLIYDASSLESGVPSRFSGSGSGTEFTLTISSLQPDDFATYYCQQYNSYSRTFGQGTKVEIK
Turning to B18, in assay [3], the Kd came out at 4.16 nM, the koff amounted to 0.000267 s⁻¹ and the kon was determined as 64000 M⁻¹ s⁻¹.

B19: AB-009221 (antibody, V domains shown)
VH: EVQLVESGGGLVQPGGSLRLSCAASGFTVSSNYMSWVRQAPGKGLEWVSVIYSGGSTYYADSVKGRFTISRHNSKNTLYLQMNSLRAEDTAVYYCARDRNAFDIWGQGTMVIVSS
VL: DIQMTQSPSSLSASVGDRVSITCQASQDISNDLNWYQQKPGKAPKLLVYDASKLETGVPPRFSGSGSGTDFTFTISSLQPEDIATYYCQQYDNLPLYSFGQGTKLEIK
In assay [1], B19 gave a Kd of 26.4 nM, a koff of 0.00121 s⁻¹ and a kon of 45800 M⁻¹ s⁻¹. In assay [2], this molecule gave a Kd of 34 nM, an off-rate (koff) of 0.00128 s⁻¹ and an on-rate (kon) of 37700 M⁻¹ s⁻¹.

The Kd is the free concentration of one partner at which half of the binding sites on the other are occupied at equilibrium, for simple one-to-one binding. Lower therefore signals higher affinity. One may read the koff as a measure of how fast the partners let go of each other. A high value points to a short-lived complex. For orientation: kon means the second-order rate constant of association. Low values mean slow association, high ones fast association.
